According to publication PMC7089733:

Molecular target: L7Ae;Nop5;fibrillarin L113K;V223E ((printed as Pf);(printed as Pf);(printed as Pf)) (UniProt Q8U160+Q8U4M1+Q8U4M2)
Assay: NMR PRE + SAXS/SANS ensemble
Conditions: half-loaded mono-RNP, 50 mM NaPi, 500 mM NaCl, pH 6.6, 100% D2O (NMR), 55 C, SANS in 42%:58% D2O:H2O, substrate at 1.2-1.25 molar equivalents, scale: % [on,off] conformers

| Sequence | binding signal | binding signal (ddG vs substrate D' 0.86 +/- 0.55 kcal/mol) |
| --- | --- | --- |
| GCGAGCAAUGAUGAGUGAUGGGCGAACUGAGCUCGAAAGAGCAAUGAUGACGGAGGUGAUCACUGAGCUCGC / GCUUCGCCCAUCAC [st-sR26 + substrate D'] | 66 | – |
| GCGAGCAAUGAUGAGUGAUGGGCGAACUGAGCUCGAAAGAGCAAUGAUGACGGAGGUGAUCACUGAGCUCGC / GUAGAUCACCUCCG [st-sR26 + substrate D] | – | 34 |
